“And” between values parts separate entries of the source, which are not always exact repeats. Equal entries are not always repeated. Where two headings read alike, the source gives them in different places.
Tests used:
Experiment in all cases: competition, purified HLA
[1] = molecular target: HLA-A*0101 (human)
[2] = molecular target: HLA-A*2902 (human)
[3] = molecular target: HLA-A*3002 (human)
[4] = remark: other sources report otherwise

## EVGPGPGLY (modifications not checked)
[1]
  IC50: 50 nM

## TQGPGPGKY (modifications not checked)
[2]
  IC50: 36.7 µM

## PTLKEYVLDLY (modifications not checked)
[2]
  IC50: 0.805 µM

## YTGPGPGVY (modifications not checked)
[2]
  IC50: 2.02 µM
[3]
  IC50: 6.4 nM

## RISGVDRYY (modifications not checked)
[3]
  IC50: 3 nM

## TQDGPGPGY (modifications not checked)
[2]
  IC50: 37.1 µM
[3]
  IC50: 541 nM

## YTAGPGPGY (modifications not checked)
[1]
  IC50: 7 nM

## RSDGPGPGVLY (modifications not checked)
[2]
  IC50: 13.2 µM

## RWGLLLALL (modifications not checked)
[2]
  IC50: 61.3 µM
[3]
  IC50: 300 nM

## ATSNYYIVTY (modifications not checked)
[1]
  IC50: 428 nM

## RQDILDLWVY (modifications not checked)
[1]
  IC50: 9000 nM
[3]
  IC50: 95 nM

## RVLPPNWKY (modifications not checked)
[3]
  IC50: 3 nM

## IYGPGPGLIF (modifications not checked)
[3]
  IC50: 6840 nM

## RFLSKISEY (modifications not checked)
[1]
  IC50: > 40300 nM

## AYGPGPGKF (modifications not checked)
[2]
  IC50: 44.9 µM

## RSDSVGPGPGY (modifications not checked)
[2]
  IC50: 31.2 µM

## AYSSWMYSY (modifications not checked)
[3]
  IC50: 4.9 nM

## EVDGPGPGY (modifications not checked)
[2]
  IC50: 25.8 µM
[3]
  IC50: 5770 nM

## AADAAAAKY (modifications not checked)
[1]
  IC50: 20 nM

## RQAKQHTCY (modifications not checked)
[1]
  IC50: > 135000 nM
[2]
  IC50: 155 µM

## EYRHYNYSLY (modifications not checked)
[1]
  IC50: 111000 nM
[2]
  IC50: 0.956 µM

## TQDLVQEKY (modifications not checked)
[2]
  IC50: 33.3 µM

## KTLYQSNPY (modifications not checked)
[1]
  IC50: 6910 nM

## KYTSFPWL (modifications not checked)
[2]
  IC50: > 172 µM

## WFHISCLTF (modifications not checked)
[1]; [4]
  IC50: 85300 nM
[2]; [4]
  IC50: 0.095 µM
[3]; [4]
  IC50: 75100 nM

## TLEKITNTELY (modifications not checked)
[2]
  IC50: 8.4 µM

## ISEYRHYQY (modifications not checked)
[1]
  IC50: 40 nM

## FTDLTIVY (modifications not checked)
[1]
  IC50: 16 nM and 34 nM
[3]
  IC50: 39000 nM

## IMVLSFLF (modifications not checked)
[3]
  IC50: 30000 nM

## FTDLRIVY (modifications not checked)
[1]
  IC50: 26 nM
[2]
  IC50: 0.813 µM
[3]
  IC50: 8060 nM

## ALFQEYQCY (modifications not checked)
[1]; [4]
  IC50: > 42000 nM

## TLEKLTNTGLY (modifications not checked)
[1]; [4]
  IC50: 77 nM
[2]; [4]
  IC50: 0.991 µM

Reference: patent US20060079453A1
